Measurements from patent US20050048605A1 (Takeda / Millennium, published 2005).
Numbering of substitutions follows the chain as printed. One block for each binder: values may come before it. Where no end group is shown, it is not given here. [ ]: non-standard residue; d: D form. The star is where a group is joined. Nle = CCCC[C@H](N)C(=O)O; 125I = [125I]*

What was measured:
[1] = biological target: T1, human-derived G protein-coupled receptor protein TGR23-2 (human TGR23-2) (human, UniProt Q6W5P4 1-371); assay: competition with [Nle10,125I-Tyr15] human TGR23-2 ligand (1-20); membrane fraction of TGR23-2 expressing CHO cells at 1 ug/ml; filter assay
T1 construct: Expressed in CHO dhfr- cells (pAKKO-TGR23-2)
T1 chain: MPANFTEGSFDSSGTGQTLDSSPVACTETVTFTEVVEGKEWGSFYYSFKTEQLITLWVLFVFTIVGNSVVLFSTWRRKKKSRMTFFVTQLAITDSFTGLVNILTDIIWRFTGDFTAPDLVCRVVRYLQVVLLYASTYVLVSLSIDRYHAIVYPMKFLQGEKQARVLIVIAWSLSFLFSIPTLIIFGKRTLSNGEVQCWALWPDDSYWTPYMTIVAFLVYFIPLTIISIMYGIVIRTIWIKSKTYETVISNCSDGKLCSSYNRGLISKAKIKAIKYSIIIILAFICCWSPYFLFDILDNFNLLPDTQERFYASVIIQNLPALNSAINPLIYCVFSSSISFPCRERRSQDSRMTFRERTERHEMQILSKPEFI
Protocol: Cell membrane fraction prepared from TGR23-1 expressing CHO cells and TGR23-2 expressing CHO cells was diluted to various concentration with assay buffer (20 mM Tris-HCl, 5 mM EDTA, 0.1% BSA, 0.5 mM PMSF, 1 μg/ml Pepstatin, 4 μg/ml E-64, 20 μg/ml Leupeptin, pH7.4), and 200 μl each of the diluent was dispensed into polypropilene test tube (Falcon 2053). In order to determine an amount of maximum binding, 2 μl of DMSO and 2 μl of 10 nM [Nle¹⁰, ¹²⁵I-Tyr¹⁵] human TGR23-2 ligand (1-20) were added to the membrane fraction solution. Further, in order to determine a non-specific binding, 2 μl of 1 μM [Nle¹⁰, Tyr¹⁵] human TGR23-2 ligand (1-20)/DMSO solution was added to the membrane fraction solution. The reaction was done at 25° C. for 90 minutes, and the reaction mixture was filtered by suction filtration using Whatman glassfilter (GF-F) treated with polyethyleneimine. After filtration, a radioactivity remaining on the filter was counted using γ-counter, and an amount of specific binding was estimated by subtracting an amount of non-specific binding from an amount of maximum binding. When the concentration of membrane fraction was changed, a specific binding of [Nle¹⁰, ¹²⁵I-Tyr¹⁵] human TGR23-2 ligand (1-20) was perceived depending on the concentration of membrane fraction. An inhibition of binding activity of the test specimen to TGR23-1 receptor or TGR23-2 receptor (inhibition rate (%)) was represented by a ratio of the value to the specific binding (SB), wherein the value is calculated by subtracting the radioactivity remaining on the filter (X) in the case of adding the test sample and [Nle¹⁰, ¹²⁵I-Tyr¹⁵] human TGR3-2 ligand (1-20) from the total binding (TB) ((TB−X)/SB×100 (%)).

[2] = biological target: T2, rat-derived G protein-coupled receptor protein TGR23-5 (rat TGR23-5) (rat, UniProt P0C0L6 1-372); assay: cell-based or functional assay
T2 sequence: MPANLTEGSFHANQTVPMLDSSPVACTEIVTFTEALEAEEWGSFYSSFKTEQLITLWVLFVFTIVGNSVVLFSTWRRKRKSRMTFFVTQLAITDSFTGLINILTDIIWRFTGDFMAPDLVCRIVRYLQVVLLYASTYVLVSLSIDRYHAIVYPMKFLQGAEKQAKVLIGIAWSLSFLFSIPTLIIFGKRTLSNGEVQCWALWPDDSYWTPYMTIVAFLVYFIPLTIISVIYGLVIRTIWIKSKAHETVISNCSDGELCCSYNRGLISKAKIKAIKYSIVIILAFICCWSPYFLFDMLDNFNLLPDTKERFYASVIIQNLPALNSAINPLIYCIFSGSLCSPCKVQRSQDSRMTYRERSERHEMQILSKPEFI

[3] = biological target: T3, rat-derived G protein-coupled receptor protein TGR23-1 (rat TGR23-1) (rat, UniProt P0C0L6 1-372); assay: cell-based or functional assay
T3 sequence: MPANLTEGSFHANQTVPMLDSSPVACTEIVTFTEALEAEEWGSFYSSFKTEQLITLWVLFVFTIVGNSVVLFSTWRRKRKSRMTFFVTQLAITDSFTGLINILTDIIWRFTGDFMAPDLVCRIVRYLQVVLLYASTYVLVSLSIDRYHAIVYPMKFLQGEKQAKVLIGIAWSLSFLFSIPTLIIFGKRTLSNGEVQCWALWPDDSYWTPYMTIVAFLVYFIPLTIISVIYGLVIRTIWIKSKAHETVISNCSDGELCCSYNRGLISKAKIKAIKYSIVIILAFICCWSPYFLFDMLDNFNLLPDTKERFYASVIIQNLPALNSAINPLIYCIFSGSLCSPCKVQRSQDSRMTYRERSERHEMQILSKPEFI

[4] = biological target: T1, human-derived G protein-coupled …; assay: radioligand filter binding on the membrane fraction of TGR23-2 expressing CHO cells
From the text: (§1) The Receptor Binding Assay Using [Nle¹⁰, ¹²⁵I-Tyr¹⁵] human TGR3-2 ligand (1-20) Using using [Nle¹⁰, ¹²⁵I-Tyr¹⁵] human TGR23-2 ligand (1-20) prepared by the method described in Example 26, and a cell membrane fraction prepared from TGR23-2 expressing CHO cells as described in Example 24 and a cell membrane fraction prepared from TGR23-1 expressing CHO cells by the similar method to that described in Example 24 using TGR23-1 expressing CHO cells instead of TGR23-2 expressing CHO cells, a receptor binding assay was carried out as follows.
(§2) Cell membrane fraction prepared from TGR23-1 expressing CHO cells and TGR23-2 expressing CHO cells was diluted to various concentration with assay buffer (20 mM Tris-HCl, 5 mM EDTA, 0.1% BSA, 0.5 mM PMSF, 1 μg/ml Pepstatin, 4 μg/ml E-64, 20 μg/ml Leupeptin, pH7.4), and 200 μl each of the diluent was dispensed into polypropilene test tube (Falcon 2053). In order to determine an amount of maximum binding, 2 μl of DMSO and 2 μl of 10 nM [Nle¹⁰, ¹²⁵I-Tyr¹⁵] human TGR23-2 ligand (1-20) were added to the membrane fraction solution. […] After filtration, a radioactivity remaining on the filter was counted using γ-counter, and an amount of specific binding was estimated by subtracting an amount of non-specific binding from an amount of maximum binding. […]

[5] = biological target: T2, rat-derived G protein-coupled receptor …; assay: saturation binding with Scatchard analysis on the membrane fraction of rat TGR23-5 expressing CHO cells; row head 'Binding Constant'; text gives dissociation constant 125±8.36 (pM)
Protocol: (§3) The membrane fractions of rat TGR23-1 expressing CHO cells and rat TGR23-5 expressing CHO cells, which were prepared as described above, were suspended in binding buffer (20 mM Tris-HCl (pH7.4), 5 mM EDTA, 0.1% BSA, 0.5 mM PMSF, 0.1 μg/ml of pepstatin, 20 μg/ml of leupeptine and 4 μg/ml of E-64). The concentrtion was adjusted to 10 μg/ml. The solutiion was used as a membrane fraction solution for binding saturation. Total binding of [Nle¹⁰, ¹²⁵I-Tyr¹⁵] human TGR23-2 ligand (1-20), which was prepared by the method described in Example 26, to the membrane fractions, was obtained by the following method.
(§4) To 200 μl of the membrane fraction solution for binding saturation, 2 μl of dimethylsulfoxide (DMSO) and 2 μl of [Nle¹⁰, ¹²⁵I-Tyr¹⁵] human TGR23-2 ligand (1-20) having various concentrations, were added, and then the mixture was incubated at 25° C. for 90 minutes. […] The radioactivity of [Nle¹⁰, ¹²⁵I-Tyr¹⁵] human TGR23-2 ligand (1-20) trapped on the glass filter was measured by counter, and the obtained value was determined as the total binding. […] A specific binding at a given concentration of [Nle¹⁰, ¹²⁵I-Tyr¹⁵] human TGR23-2 ligand (1-20) is calculated by subtracting the non-specific binding from the total binding at the same concentration. […]

[6] = biological target: T3, rat-derived G protein-coupled receptor …; assay: saturation binding with Scatchard analysis on the membrane fraction of rat TGR23-1 expressing CHO cells; row head 'Binding Constant'; text gives dissociation constant 141±8.71 (pM)
Protocol: as §3, §4

[7] = biological target: T4, human-derived G protein-coupled receptor protein TGR23-1 (human TGR23-1) (human, UniProt Q6W5P4 1-371); assay: radioligand filter binding on the membrane fraction of TGR23-1 expressing CHO cells
T4 construct: Expressed in CHO dhfr- cells (pAKKO-TGR23-1)
T4 sequence: T1 chain with I107N, R344Q
From the text: as §1, §2

IC50 [1]: 0.0928 nM
Intracellular Ca increasing activity (EC50) [2]: 14 nM
Intracellular Ca increasing activity (EC50) [3]: 0.19 nM
B1: rat TGR23-2 ligand (1-18) (peptide)
peptide: SFRNGVGSGVKKTSFRRA

IC50 [1]: 0.105 nM
B2: human TGR23-2 ligand (1-20) (peptide)
peptide: SFRNGVGTGMKKTSFQRAKS
notes: also called human TGR23 ligand (1-20)

binding result [4]: binds
Kd [5]: 0.125 nM
Kd [6]: 0.141 nM
binding result [7]: binds
B3: [Nle^10, ^125I-Tyr^15] human TGR23-2 ligand (1-20) (peptide)
peptide: SFRNGVGTG[Nle]KKTSY(125I)QRAKS

IC50 [1]: 0.0245 nM
B4: mouse TGR23-2 ligand (1-20) (peptide)
peptide: SFRNGVGSGAKKTSFRRAKQ
